Measured values from publication PMC10397247.
Where two headings read alike, the source gives them in different places.

Assays:
Assay in all cases: two-hybrid library CCNG1;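 further: natural log of median RNA to DNA barcode read ratio; higher means stronger binding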
[1] = target: T1, 4H3855-bH
T1 chain: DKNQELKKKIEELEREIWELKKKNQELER

[2] = target: T2, 4H3189-bH
T2 chain: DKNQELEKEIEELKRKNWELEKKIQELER

[3] = target: T3, 4H3782-bH
T3 chain: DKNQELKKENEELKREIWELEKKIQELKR

[4] = target: T4, 4H953-bH
T4 chain: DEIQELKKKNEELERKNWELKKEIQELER

[5] = target: T5, 4H607-bA
T5 chain: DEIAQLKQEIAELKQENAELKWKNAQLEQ

[6] = target: T6, 4H687-bH
T6 chain: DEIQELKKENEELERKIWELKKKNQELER

[7] = target: T7, 4H1828-bH
T7 chain: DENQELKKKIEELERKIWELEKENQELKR

[8] = target: T8, 4H607-bH
T8 chain: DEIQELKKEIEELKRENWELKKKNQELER

[9] = target: T9, 4H568-bH
T9 chain: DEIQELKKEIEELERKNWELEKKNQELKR

[10] = target: T10, 4H717-bH
T10 chain: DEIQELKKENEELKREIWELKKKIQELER

[11] = target: T11, 4H1845-bH
T11 chain: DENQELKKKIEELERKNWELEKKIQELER

[12] = target: T12, 4H370-bH
T12 chain: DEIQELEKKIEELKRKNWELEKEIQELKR

[13] = target: T13, 4H4001-bH
T13 chain: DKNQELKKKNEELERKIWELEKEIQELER

[14] = target: T14, 4H2576-bH
T14 chain: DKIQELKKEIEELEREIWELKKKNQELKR

[15] = target: T15, 4H2667-bH
T15 chain: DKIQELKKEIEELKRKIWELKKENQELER

[16] = target: T16, 4H2610-bH
T16 chain: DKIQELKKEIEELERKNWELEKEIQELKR

[17] = target: T17, 4H908-bH
T17 chain: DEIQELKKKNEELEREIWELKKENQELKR

[18] = target: T18, 4H454-bH
T18 chain: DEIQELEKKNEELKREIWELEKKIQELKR

[19] = target: T19, 4H2618-bH
T19 chain: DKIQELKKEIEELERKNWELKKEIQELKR

[20] = target: T20, 4H462-bH
T20 chain: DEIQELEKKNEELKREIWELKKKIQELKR

[21] = target: T21, 4H3843-bH
T21 chain: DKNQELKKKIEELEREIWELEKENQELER

[22] = target: T22, 4H754-bH
T22 chain: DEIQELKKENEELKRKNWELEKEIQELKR

[23] = target: T23, 4H3606-bH
T23 chain: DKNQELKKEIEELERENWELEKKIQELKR

[24] = target: T24, 4H918-bH
T24 chain: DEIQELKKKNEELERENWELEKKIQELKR

[25] = target: T25, 4H338-bH
T25 chain: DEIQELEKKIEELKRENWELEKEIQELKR

[26] = target: T26, 4H3354-bH
T26 chain: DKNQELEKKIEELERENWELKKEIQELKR

[27] = target: T27, 4H949-bA
T27 chain: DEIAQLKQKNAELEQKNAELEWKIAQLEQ

[28] = target: T28, 4H2442-bH
T28 chain: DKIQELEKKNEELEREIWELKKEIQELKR

[29] = target: T29, 4H967-bH
T29 chain: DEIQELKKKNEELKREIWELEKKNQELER

[30] = target: T30, 4H4001-bA
T30 chain: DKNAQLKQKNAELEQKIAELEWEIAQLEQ

[31] = target: T31, 4H3427-bH
T31 chain: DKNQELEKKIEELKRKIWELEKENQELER

[32] = target: T32, 4H1446-bH
T32 chain: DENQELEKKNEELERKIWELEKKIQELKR

[33] = target: T33, 4H797-bH
T33 chain: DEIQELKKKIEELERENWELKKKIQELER

[34] = target: T34, 4H331-bH
T34 chain: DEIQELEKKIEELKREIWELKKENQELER

[35] = target: T35, 4H3112-bH
T35 chain: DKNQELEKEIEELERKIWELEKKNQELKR

[36] = target: T36, 4H72-bH
T36 chain: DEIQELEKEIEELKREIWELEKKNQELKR

[37] = target: T37, 4H2697-bH
T37 chain: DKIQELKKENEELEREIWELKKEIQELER

[38] = target: T38, 4H2729-bH
T38 chain: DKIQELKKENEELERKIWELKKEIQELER

[39] = target: T39, 4H3185-bH
T39 chain: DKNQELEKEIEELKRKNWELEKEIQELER

[40] = target: T40, 4H883-bH
T40 chain: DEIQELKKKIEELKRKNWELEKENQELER

[41] = target: T41, 4H3638-bN
T41 chain: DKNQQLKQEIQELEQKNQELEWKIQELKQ

[42] = target: T42, 4H3974-bN
T42 chain: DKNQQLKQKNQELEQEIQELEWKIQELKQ

[43] = target: T43, 4H584-bN
T43 chain: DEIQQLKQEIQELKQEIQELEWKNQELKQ

[44] = target: T44, 4H570-bN
T44 chain: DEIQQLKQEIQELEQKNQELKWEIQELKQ

[45] = target: T45, 4H3817-bN
T45 chain: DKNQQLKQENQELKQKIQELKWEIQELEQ

[46] = target: T46, 4H619-bN
T46 chain: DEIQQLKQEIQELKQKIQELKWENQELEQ

[47] = target: T47, 4H3631-bN
T47 chain: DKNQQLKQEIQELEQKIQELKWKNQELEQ

[48] = target: T48, O10-bA
T48 chain: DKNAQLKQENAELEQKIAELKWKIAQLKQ

[49] = target: T49, 4H850-bN
T49 chain: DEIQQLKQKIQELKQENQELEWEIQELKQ

[50] = target: T50, 4H906-bN
T50 chain: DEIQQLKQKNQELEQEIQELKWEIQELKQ

[51] = target: T51, O9-bA; conditions: mean of both orientations
T51 chain: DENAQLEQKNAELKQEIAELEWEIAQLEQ

[52] = target: T52, O12-bA
T52 chain: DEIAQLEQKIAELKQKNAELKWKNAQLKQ

[53] = target: T53, O3-bA
T53 chain: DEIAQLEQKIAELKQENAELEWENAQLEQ

[54] = target: T54, O16-bA
T54 chain: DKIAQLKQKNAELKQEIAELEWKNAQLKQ

[55] = target: T55, O4-bA
T55 chain: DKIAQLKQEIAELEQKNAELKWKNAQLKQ

[56] = target: T56, O6-bA
T56 chain: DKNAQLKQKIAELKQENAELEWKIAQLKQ

[57] = target: T57, O14-bA
T57 chain: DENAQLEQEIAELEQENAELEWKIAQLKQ

[58] = target: T58, O7-bA
T58 chain: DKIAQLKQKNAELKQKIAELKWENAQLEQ

[59] = target: T59, O15-bA
T59 chain: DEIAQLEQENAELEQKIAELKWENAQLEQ

[60] = target: T60, O11-bA
T60 chain: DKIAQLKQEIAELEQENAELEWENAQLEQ

[61] = target: T61, O13-bA
T61 chain: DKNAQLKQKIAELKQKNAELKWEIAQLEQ

[62] = target: T62, O5-bA
T62 chain: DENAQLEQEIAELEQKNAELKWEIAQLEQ

[63] = target: T63, O2-bA
T63 chain: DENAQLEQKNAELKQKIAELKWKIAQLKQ

[64] = target: T64, O8-bA
T64 chain: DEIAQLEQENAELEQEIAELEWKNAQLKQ

[65] = target: T65, 4H3297-bN
T65 chain: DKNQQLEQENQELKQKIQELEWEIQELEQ

[66] = target: T66, 4H2673-bA
T66 chain: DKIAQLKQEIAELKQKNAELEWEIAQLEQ

## DENQELEKKNEELERKIWELEKKIQELKR [4H1446-bH]
[1]
  interaction score: 0.34
[2]
  interaction score: -1.86
[3]
  interaction score: 0.741
[4]
  interaction score: -0.325
[5]
  interaction score: 0.727
[6]
  interaction score: 0.347
[7]
  interaction score: 0.624
[8]
  interaction score: -0.622
[9]
  interaction score: -2.02
[10]
  interaction score: -0.635
[11]
  interaction score: 0.192
[12]
  interaction score: -0.404
[13]
  interaction score: 1.24
[14]
  interaction score: 0.59
[15]
  interaction score: -0.551
[16]
  interaction score: 0.669
[17]
  interaction score: -0.161
[18]
  interaction score: 0.981
[19]
  interaction score: -0.314
[20]
  interaction score: 0.0836
[21]
  interaction score: 1.3
[22]
  interaction score: 0.109
[23]
  interaction score: -0.704
[24]
  interaction score: -1.41
[25]
  interaction score: 1.17
[26]
  interaction score: 0.818
[27]
  interaction score: -2.01
[28]
  interaction score: 0.731
[29]
  interaction score: 0.346
[30]
  interaction score: 2.32
[31]
  interaction score: 0.933
[32]
  interaction score: 0.821
[33]
  interaction score: -0.466
[34]
  interaction score: 1.32
[35]
  interaction score: -0.67
[36]
  interaction score: -0.157
[37]
  interaction score: 1.08
[38]
  interaction score: 0.679
[39]
  interaction score: 0.0116
[40]
  interaction score: 0.0186

## DKNQQLKQEIQELEQKIQELKWKNQELEQ [4H3631-bN]
[41]
  interaction score: -1.15
[42]
  interaction score: -0.31
[43]
  interaction score: 0.98
[44]
  interaction score: -1.51
[45]
  interaction score: -0.125
[46]
  interaction score: -0.252
[47]
  interaction score: -0.0832
[48]
  interaction score: 0.22
[49]
  interaction score: -1.06
[50]
  interaction score: -0.602

## DKNAQLKQENAELEQKIAELKWKIAQLKQ [O10-bA]
[51]
  interaction score: 1.74
[52]
  interaction score: -0.395
[53]
  interaction score: -1.28
[54]
  interaction score: 0.945
[55]
  interaction score: -0.577
[56]
  interaction score: 0.6
[57]
  interaction score: -1.3
[58]
  interaction score: 0.923
[48]; mean of both orientations
  interaction score: 0.0957
[59]
  interaction score: 0.0908
[60]
  interaction score: 0.88
[61]
  interaction score: 0.636
[62]
  interaction score: -0.944
[63]
  interaction score: 1.79
[64]
  interaction score: 0.126

## DENQELKKKIEELERKIWELEKENQELKR [4H1828-bH]
[1]
  interaction score: 0.0964
[3]
  interaction score: 0.484
[4]
  interaction score: -0.675
[6]
  interaction score: -0.438
[7]
  interaction score: 0.57
[8]
  interaction score: -2.38
[9]
  interaction score: -1.34
[10]
  interaction score: 0.163
[11]
  interaction score: -0.21
[65]
  interaction score: -1.01
[13]
  interaction score: 0.309
[14]
  interaction score: -1.69
[15]
  interaction score: 1.08
[17]
  interaction score: -0.285
[18]
  interaction score: 0.741
[19]
  interaction score: 0.369
[22]
  interaction score: 0.147
[24]
  interaction score: 0.157
[25]
  interaction score: 1.16
[26]
  interaction score: 0.672
[28]
  interaction score: 0.0564
[29]
  interaction score: -0.867
[31]
  interaction score: 0.362
[33]
  interaction score: 0.474
[34]
  interaction score: -0.37
[35]
  interaction score: 0.767
[36]
  interaction score: 0.102
[38]
  interaction score: -0.147
[66]
  interaction score: -3.95
[39]
  interaction score: -0.478
[40]
  interaction score: 0.204
